“And” between values parts separate entries of the source, which are not always exact repeats. Equal entries are not always repeated.

Substrate in this data set: NC(=O)c1ccc[n+]([C@@H]2O[C@H](COP(=O)([O-])OP(=O)(O)OC[C@H]3O[C@@H](n4cnc5c(N)ncnc54)[C@H](O)[C@@H]3O)[C@@H](O)[C@H]2O)c1
As to the kind of experiment: purified protein, by the assay type. The following applies: pH 7.25, 30.0 °C.

B1: PtxD (Stutzerimonas stutzeri) (protein)
chain: MLPKLVITHRVHDEILQLLAPHCELMTNQTDSTLTREEILRRCRDAQAMMAFMPDRVDADFLQACPELRVVGCALKGFDNFDVDACTARGVWLTFVPDLLTVPTAELAIGLAVGLGRHLRAADAFVRSGEFQGWQPQFYGTGLDNATVGILGMGAIGLAMADRLQGWGATLQYHEAKALDTQTEQRLGLRQVACSELFASSDFILLALPLNADTQHLVNAELLALVRPGALLVNPCRGSVVDEAAVLAALERGQLGGYAADVFEMEDWARADRPRLIDPALLAHPNTLFTPHIGSAVRAVRLEIERCAAQNIIQVLAGARPINAANRLPKAEPAAC
For the protein B1, the Km runs as follows: (other: Table 4, NAP as A, fit to Equilibrium ordered mechanism) 4520 µM; (other: Table 4, NAP as A, fit to Pingpong mechanism) 12800 µM; (other: substrates of PtxD) 54.6 ± 6.7 µM and 50 µM.

These data come from patent publication US20040091985A1, “NAD phosphite oxidoreductase, a novel catalyst from bacteria for regeneration of NAD(P)H” (priority 2002, published 2004).
